# Measured values as given in article PMC6922093.
# How the values were obtained:
# [1] = target: RSV strain B18537 DS-Cav1 F glycoprotein (prefusion-stabilized soluble F trimer, subtype B) (RSV subtype B strain B18537 | phage T4); assay: SEC; 120 mL Superdex-200 gel filtration column in PBS buffer; single monodisperse peak compared with protein standards
# [2] = target: RSV strain B18537 DS-Cav1 F glycoprotein (prefusion-stabilized soluble F trimer, subtype B) (RSV subtype B strain B18537 | phage T4); assay: crystal structure; crystals in 1.2M ammonium sulfate, 0.1M sodium acetate pH5.5, 0.1M lithium sulfate; space group P4(1)32, 1 protomer per asymmetric unit; trimer by crystal symmetry
substance,measurement,setting,value
"RSV strain B18537 DS-Cav1 F glycoprotein (prefusion-stabilized soluble F trimer, subtype B) (domain or fragment)",stoichiometry N,[1],3
same,stoichiometry N,[2],3
